Measurements: the supplement of paper PMC5998384

Legend:
HeLa Kyoto [1] = assay: thermal stability score vs G1/S (z-score of summed log2 fold changes over temperatures); higher = more thermally stable than in G1/S
HeLa Kyoto [2] = assay: melting temperature (median over replicates), in situ; higher = more thermally stable
HeLa Kyoto [3] = assay: solubility change mitosis vs G1/S (difference of NP-40 vs SDS log2 ratios) (log2 ratio difference); higher = more soluble in mitosis
HeLa Kyoto [4] = assay: solubility in G1/S (NP-40 vs SDS abundance) (log2 ratio); higher = more soluble; conditions: cell cycle stage: G1/S
[5] = cell cycle stage: early G1 (4.5 h after nocodazole release)
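Wherever melting temperature (median over replicates), in situ is given: HeLa Kyoto cells synchronized by double thymidine or nocodazole block, proteins quantified by TMT10plex mass spectrometry, three independent biological replicates.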
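Wherever solubility change mitosis vs G1/S (difference of NP-40 vs SDS log2 ratios) is given: synchronized HeLa Kyoto cells (double thymidine block for G1/S, nocodazole release for mitosis), protein amounts in NP-40 versus SDS lysates quantified by mass spectrometry, three biological replicates.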
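Wherever solubility in G1/S (NP-40 vs SDS abundance) is given: HeLa Kyoto cells arrested at G1/S by double thymidine block, proteins quantified by TMT10plex mass spectrometry in mild NP-40 versus SDS extracts, three biological replicates.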
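Wherever thermal stability score vs G1/S (z-score of summed log2 fold changes over temperatures) is given: synchronized HeLa Kyoto cells, proteins quantified by TMT10plex mass spectrometry, three biological replicates, mitosis taken 0.5 h after nocodazole release, G1/S directly after double thymidine block.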

| Sequence | thermal stability score (HeLa Kyoto [1]; [5]) | thermal stability score (HeLa Kyoto [1]; cell cycle stage: mitosis) | melting temperature (HeLa Kyoto [2]; cell cycle stage: G1/S) | melting temperature (HeLa Kyoto [2]; cell cycle stage: mitosis) | solubility change mitosis (log2) (HeLa Kyoto [3]) | solubility in G1/S (log2) (HeLa Kyoto [4]) |
| --- | --- | --- | --- | --- | --- | --- |
| MSQVKSSYSYDAPSDFINFSSLDDEGDTQNIDSWFEEKANLENKLLGKNGTGGLFQGKTPLRKANLQQAIVTPLKPVDNTYYKEAEKENLVEQSIPSNACSSLEVEAAISRKTPAQPQRRSLRLSAQKDLEQKEKHHVKMKAKRCATPVIIDEILPSKKMKVSNNKKKPEEEGSAHQDTAEKNASSPEKAKGRHTVPCMPPAKQKFLKSTEEQELEKSMKMQQEVVEMRKKNEEFKKLALAGIGQPVKKSVSQVTKSVDFHFRTDERIKQHPKNQEEYKEVNFTSELRKHPSSPARVTKGCTIVKPFNLSQGKKRTFDETVSTYVPLAQQVEDFHKRTPNRYHLRSKKDDINLLPSKSSVTKICRDPQTPVLQTKHRARAVTCKSTAELEAEELEKLQQYKFKARELDPRILEGGPILPKKPPVKPPTEPIGFDLEIEKRIQERESKKKTEDEHFEFHSRPCPTKILEDVVGVPEKKVLPITVPKSPAFALKNRIRMPTKEDEEEDEPVVIKAQPVPHYGVPFKPQIPEARTVEICPFSFDSRDKERQLQKEKKIKELQKGEVPKFKALPLPHFDTINLPEKKVKNVTQIEPFCLETDRRGALKAQTWKHQLEEELRQQKEAACFKARPNTVISQEPFVPKKEKKSVAEGLSGSLVQEPFQLATEKRAKERQELEKRMAEVEAQKAQQLEEARLQEEEQKKEELARLRRELVHKANPIRKYQGLEIKSSDQPLTVPVSPKFSTRFHC [TPX2] | -0.935 | -2.05 | 53.8 °C | 53.1 °C | 0.425 | -0.167 |
| MSQVLFHQLVPLQVKCKDCEERRVSIRMSIELQSVSNPVHRKDLVIRLTDDTDPFFLYNLVISEEDFQSLKFQQGLLVDFLAFPQKFIDLLQQCTQEHAKEIPRFLLQLVSPAAILDNSPAFLNVVETNPFKHLTHLSLKLLPGNDVEIKKFLAGCLKCSKEEKLSLMQSLDDATKQLDFTRKTLAEKKQELDKLRNEWASHTAALTNKHSQELTNEKEKALQAQVQYQQQHEQQKKDLEILHQQNIHQLQNRLSELEAANKDLTERKYKGDSTIRELKAKLSGVEEELQRTKQEVLSLRRENSTLDVECHEKEKHVNQLQTKVAVLEQEIKDKDQLVLRTKEAFDTIQEQKVVLEENGEKNQVQLGKLEATIKSLSAELLKANEIIKKLQGDLKTLMGKLKLKNTVTIQQEKLLAEKEEKLQKEQKELQDVGQSLRIKEQEVCKLQEQLEATVKKLEESKQLLKNNEKLITWLNKELNENQLVRKQDVLGPSTTPPAHSSSNTIRSGISPNLNVVDGRLTYPTCGIGYPVSSAFAFQNTFPHSISAKNTSHPGSGTKVQFNLQFTKPNASLGDVQSGATISMPCSTDKENGENVGLESKYLKKREDSIPLRGLSQNLFSNSDHQRDGTLGALHTSSKPTALPSASSAYFPGQLPNS [SASS6] | 0.985 | 0.832 | 48.2 °C | 49.3 °C | -0.0259 | 0.537 |
| MSRGPSSAVLPSALGSRKLGPRSLSCLSDLDGGVALEPRACRPPGSPGRAPPPTPAPSGCDPRLRPIILRRARSLPSSPERRQKAAGAPGAACRPGCSQKLRVRFADALGLELAQVKVFNAGDDPSVPLHVLSRLAINSDLCCSSQDLEFTLHCLVPDFPPPVEAADFGERLQRQLVCLERVTCSDLGISGTVRVCNVAFEKQVAVRYTFSGWRSTHEAVARWRGPAGPEGTEDVFTFGFPVPPFLLELGSRVHFAVRYQVAGAEYWDNNDHRDYSLTCRNHALHMPRGECEESWIHFI [PPP1R3D] | -0.613 | -0.713 | 51.7 °C | 50.8 °C | -0.164 | 0.0302 |
| MSRIEKMSILGVRSFGIEDKDKQIITFFSPLTILVGPNGAGKTTIIECLKYICTGDFPPGTKGNTFVHDPKVAQETDVRAQIRLQFRDVNGELIAVQRSMVCTQKSKKTEFKTLEGVITRTKHGEKVSLSSKCAEIDREMISSLGVSKAVLNNVIFCHQEDSNWPLSEGKALKQKFDEIFSATRYIKALETLRQVRQTQGQKVKEYQMELKYLKQYKEKACEIRDQITSKEAQLTSSKEIVKSYENELDPLKNRLKEIEHNLSKIMKLDNEIKALDSRKKQMEKDNSELEEKMEKVFQGTDEQLNDLYHNHQRTVREKERKLVDCHRELEKLNKESRLLNQEKSELLVEQGRLQLQADRHQEHIRARDSLIQSLATQLELDGFERGPFSERQIKNFHKLVRERQEGEAKTANQLMNDFAEKETLKQKQIDEIRDKKTGLGRIIELKSEILSKKQNELKNVKYELQQLEGSSDRILELDQELIKAERELSKAEKNSNVETLKMEVISLQNEKADLDRTLRKLDQEMEQLNHHTTTRTQMEMLTKDKADKDEQIRKIKSRHSDELTSLLGYFPNKKQLEDWLHSKSKEINQTRDRLAKLNKELASSEQNKNHINNELKRKEEQLSSYEDKLFDVCGSQDFESDLDRLKEEIEKSSKQRAMLAGATAVYSQFITQLTDENQSCCPVCQRVFQTEAELQEVISDLQSKLRLAPDKLKSTESELKKKEKRRDEMLGLVPMRQSIIDLKEKEIPELRNKLQNVNRDIQRLKNDIEEQETLLGTIMPEEESAKVCLTDVTIMERFQMELKDVERKIAQQAAKLQGIDLDRTVQQVNQEKQEKQHKLDTVSSKIELNRKLIQDQQEQIQHLKSTTNELKSEKLQISTNLQRRQQLEEQTVELSTEVQSLYREIKDAKEQVSPLETTLEKFQQEKEELINKKNTSNKIAQDKLNDIKEKVKNIHGYMKDIENYIQDGKDDYKKQKETELNKVIAQLSECEKHKEKINEDMRLMRQDIDTQKIQERWLQDNLTLRKRNEELKEVEEERKQHLKEMGQMQVLQMKSEHQKLEENIDNIKRNHNLALGRQKGYEEEIIHFKKELREPQFRDAEEKYREMMIVMRTTELVNKDLDIYYKTLDQAIMKFHSMKMEEINKIIRDLWRSTYRGQDIEYIEIRSDADENVSASDKRRNYNYRVVMLKGDTALDMRGRCSAGQKVLASLIIRLALAETFCLNCGIIALDEPTTNLDRENIESLAHALVEIIKSRSQQRNFQLLVITHDEDFVELLGRSEYVEKFYRIKKNIDQCSEIVKCSVSSLGFNVH [RAD50] | 2.17 | 3.45 | 48.8 °C | 49.7 °C | -0.108 | -0.129 |
| MSRIESLTRARIDRSRELASKTREKEKMKEAKDARYTNGHLFTTISVSGMTMCYACNKSITAKEALICPTCNVTIHNRCKDTLANCTKVKQKQQKAALLKNNTALQSVSLRSKTTIRERPSSAIYPSDSFRQSLLGSRRGRSSLSLAKSVSTTNIAGHFNDESPLGLRRILSQSTDSLNMRNRTLSVESLIDEAEVIYSELMSDFEMDEKDFAADSWSLAVDSSFLQQHKKEVMKQQDVIYELIQTELHHVRTLKIMTRLFRTGMLEELHLEPGVVQGLFPCVDELSDIHTRFLSQLLERRRQALCPGSTRNFVIHRLGDLLISQFSGPSAEQMCKTYSEFCSRHSKALKLYKELYARDKRFQQFIRKVTRPAVLKRHGVQECILLVTQRITKYPLLISRILQHSHGIEEERQDLTTALGLVKELLSNVDEGIYQLEKGARLQEIYNRMDPRAQTPVPGKGPFGREELLRRKLIHDGCLLWKTATGRFKDVLVLLMTDVLVFLQEKDQKYIFPTLDKPSVVSLQNLIVRDIANQEKGMFLISAAPPEMYEVHTASRDDRSTWIRVIQQSVRTCPSREDFPLIETEDEAYLRRIKMELQQKDRALVELLREKVGLFAEMTHFQAEEDGGSGMALPTLPRGLFRSESLESPRGERLLQDAIREVEGLKDLLVGPGVELLLTPREPALPLEPDSGGNTSPGVTANGEARTFNGSIELCRADSDSSQRDRNGNQLRSPQEEALQRLVNLYGLLHGLQAAVAQQDTLMEARFPEGPERREKLCRANSRDGEAGRAGAAPVAPEKQATELALLQRQHALLQEELRRCRRLGEERATEAGSLEARLRESEQARALLEREAEEARRQLAALGQTEPLPAEAPWARRPVDPRRRSLPAGDALYLSFNPPQPSRGTDRLDLPVTTRSVHRNFEDRERQELGSPEERLQDSSDPDTGSEEEGSSRLSPPHSPRDFTRMQDIPEETESRDGEAVASES [ARHGEF2] | 0.217 | 2.08 | 48.4 °C | 48.4 °C | -0.0226 | -0.137 |
| MSRKGPRAEVCADCSAPDPGWASISRGVLVCDECCSVHRSLGRHISIVKHLRHSAWPPTLLQMVHTLASNGANSIWEHSLLDPAQVQSGRRKANPQDKVHPIKSEFIRAKYQMLAFVHKLPCRDDDGVTAKDLSKQLHSSVRTGNLETCLRLLSLGAQANFFHPEKGTTPLHVAAKAGQTLQAELLVVYGADPGSPDVNGRTPIDYARQAGHHELAERLVECQYELTDRLAFYLCGRKPDHKNGHYIIPQMADSLDLSELAKAAKKKLQALSNRLFEELAMDVYDEVDRRENDAVWLATQNHSTLVTERSAVPFLPVNPEYSATRNQGRQKLARFNAREFATLIIDILSEAKRRQQGKSLSSPTDNLELSLRSQSDLDDQHDYDSVASDEDTDQEPLRSTGATRSNRARSMDSSDLSDGAVTLQEYLELKKALATSEAKVQQLMKVNSSLSDELRRLQREIHKLQAENLQLRQPPGPVPTPPLPSERAEHTPMAPGGSTHRRDRQAFSMYEPGSALKPFGGPPGDELTTRLQPFHSTELEDDAIYSVHVPAGLYRIRKGVSASAVPFTPSSPLLSCSQEGSRHTSKLSRHGSGADSDYENTQSGDPLLGLEGKRFLELGKEEDFHPELESLDGDLDPGLPSTEDVILKTEQVTKNIQELLRAAQEFKHDSFVPCSEKIHLAVTEMASLFPKRPALEPVRSSLRLLNASAYRLQSECRKTVPPEPGAPVDFQLLTQQVIQCAYDIAKAAKQLVTITTREKKQ [GIT1] | 0.709 | 0.998 | 48.4 °C | 50 °C | -0.123 | 0.235 |
| MSRPLITRSPASPLNNQGIPTPAQLTKSNAPVHIDVGGHMYTSSLATLTKYPESRIGRLFDGTEPIVLDSLKQHYFIDRDGQMFRYILNFLRTSKLLIPDDFKDYTLLYEEAKYFQLQPMLLEMERWKQDRETGRFSRPCECLVVRVAPDLGERITLSGDKSLIEEVFPEIGDVMCNSVNAGWNHDSTHVIRFPLNGYCHLNSVQVLERLQQRGFEIVGSCGGGVDSSQFSEYVLRRELRRTPRVPSVIRIKQEPLD [KCTD1] | 0.414 | 0.162 | 58.7 °C | 55.9 °C | -0.267 | 0.464 |
| MSRPRKRLAGTSGSDKGLSGKRTKTENSGEALAKVEDSNPQKTSATKNCLKNLSSHWLMKSEPESRLEKGVDVKFSIEDLKAQPKQTTCWDGVRNYQARNFLRAMKLGEEAFFYHSNCKEPGIAGLMKIVKEAYPDHTQFEKNNPHYDPSSKEDNPKWSMVDVQFVRMMKRFIPLAELKSYHQAHKATGGPLKNMVLFTRQRLSIQPLTQEEFDFVLSLEEKEPS [THYN1] | -1.19 | -1.36 | 47.3 °C | 51.3 °C | 0.199 | 0.389 |
